Assay results as given in patent US20250282870A1 (BIOENTRE, published 2025).

How the values were obtained:
[1] = target: T1, human CTLA4 expressed on Jurkat T cells (CTLA4 effector cells) (human, UniProt P16410 36-223); test: cell-based or functional assay
T1 sequence (looked up): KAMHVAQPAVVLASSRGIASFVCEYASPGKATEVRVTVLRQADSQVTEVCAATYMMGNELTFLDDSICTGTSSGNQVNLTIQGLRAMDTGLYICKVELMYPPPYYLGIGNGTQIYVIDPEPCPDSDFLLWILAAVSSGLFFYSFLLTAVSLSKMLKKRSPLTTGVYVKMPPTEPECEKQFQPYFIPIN

[2] = target: FcγRII (CD32) expressed on Raji cells; test: cell-based or functional assay

B1: 26 F(ab')2 (synthetic) (other)
VH: QVQLKESGPGLVAPSQSLSITCTVSGFSLTSYGVYWVRQPPGKGLEWLGVIWAGGTTNYNSALMSRLSISKDNSKSQVFLKMSSLQTDDTAMYYCARGPPHAMMKRGYAMDYWGQGTSVIVSS
VL: QNVLTQSPAIMPASPGEKVTMTCSATSSITYMSWYQQKSGSSPRLLIYDTSNLASGVPVRFSGSGSGTSYSLTISRMEAEDAATYYCQQWSSYPLTFGAGTKLELK
activity titration curve, CTLA4 blockade assay, against 26 HuIgG1 [1]: > 2 fold of 26 HuIgG1

B2: 26 HuIgG1 (chimeric antibody: VH and VL of mouse antibody 26 on a human IgG1 scaffold) (antibody, V domains shown)
VH: QVQLKESGPGLVAPSQSLSITCTVSGFSLTSYGVYWVRQPPGKGLEWLGVIWAGGTTNYNSALMSRLSISKDNSKSQVFLKMSSLQTDDTAMYYCARGPPHAMMKRGYAMDYWGQGTSVIVSS
VL: QNVLTQSPAIMPASPGEKVTMTCSATSSITYMSWYQQKSGSSPRLLIYDTSNLASGVPVRFSGSGSGTSYSLTISRMEAEDAATYYCQQWSSYPLTFGAGTKLELK
RLU ratio of the CTLA4 blockade assay with anti-CD32 antibody at 10 µg per ml [2]: ~50%
